Reference: publication PMC3688963, “Biochemical Characterization of Hypothetical Proteins from Helicobacter pylori” (PLoS ONE, 2013)

Tested on: CC(=O)Oc1ccc([N+](=O)[O-])cc1
Assay: purified protein
Settings: 100 mM sodium acetate pH 6.0, 30°C

In the case of HP0310 (Helicobacter pylori 26695), the Km is reported as 180 ± 50 µM, the Vmax is reported as 37400 µM/min and the kcat is reported as 20.1 ± 0.917 s⁻¹. It also gave a kcat/Km of 112000 M⁻¹ s⁻¹.
